In patent US20100041096:

B1: His-BRCA1 (1-304) / His-BARD1 (14-189) (protein)
chain 1: MDLSALRVEEVQNVINAMQKILECPICLELIKEPVSTKCDHIFCKFCMLKLLNQKKGPSQCPLCKNDITKRSLQESTRFSQLVEELLKIICAFQLDTGLEYANSYNFAKKENNSPEHLKDEVSIIQSMGYRNRAKRLLQSEPENPSLQETSLSVQLSNLGTVRTLRTKQRIQPQKTSVYIELGSDSSEDTVNKATYCSVGDQELLQITPQGTRDEISLDSAKKAACEFSETDVTNTEHHQPSNNDLNTTEKRAAERHPEKYQGSSVSNLHVEPCGTNTHASSLQHENSSLLLTKDRMNVEKAEF
chain 2: IRSGNEPRSAPAMEPDGRGAWAHSRAALDRLEKLLRCSRCTNILREPVCLGGCEHIFCSNCVSDCIGTGCPVCYTPAWIQDLKINRQLDSMIQLCSKLRNLLHDNELSDLKEDKPRKSLFNDAGNKKNSIKMWFSPRSKKVRYVVSKASVQTQPAIKKDASAQQDSYEFVSPSPPA
B2: Myc-BRCA1(1-772)/BARD1 complex (protein)
chain 1: MDLSALRVEEVQNVINAMQKILECPICLELIKEPVSTKCDHIFCKFCMLKLLNQKKGPSQCPLCKNDITKRSLQESTRFSQLVEELLKIICAFQLDTGLEYANSYNFAKKENNSPEHLKDEVSIIQSMGYRNRAKRLLQSEPENPSLQETSLSVQLSNLGTVRTLRTKQRIQPQKTSVYIELGSDSSEDTVNKATYCSVGDQELLQITPQGTRDEISLDSAKKAACEFSETDVTNTEHHQPSNNDLNTTEKRAAERHPEKYQGSSVSNLHVEPCGTNTHASSLQHENSSLLLTKDRMNVEKAEFCNKSKQPGLARSQHNRWAGSKETCNDRRTPSTEKKVDLNADPLCERKEWNKQKLPCSENPRDTEDVPWITLNSSIQKVNEWFSRSDELLGSDDSHDGESESNAKVADVLDVLNEVDEYSGSSEKIDLLASDPHEALICKSERVHSKSVESNIEDKIFGKTYRKKASLPNLSHVTENLIIGAFVTEPQIIQERPLTNKLKRKRRPTSGLHPEDFIKKADLAVQKTPEMINQGTNQTEQNGQVMNITNSGHENKTKGDSIQNEKNPNPIESLEKESAFKTKAEPISSSISNMELELNIHNSKAPKKNRLRRKSSTRHIHALELVVSRNLSPPNCTELQIDSCSSSEEIKKKKYNQMPVRHSRNLQLMEGKEPATGAKKSNKPNEQTSKRHDSDTFPELKLTNAPGSFTKCSNTSELKEFVNPSLPREEKEEKLETVKVSNNAEDPKDLMLSGERVLQTERSVESSSISLV
chain 2: MPDNRQPRNRQPRIRSGNEPRSAPAMEPDGRGAWAHSRAALDRLEKLLRCSRCTNILREPVCLGGCEHIFCSNCVSDCIGTGCPVCYTPAWIQDLKINRQLDSMIQLCSKLRNLLHDNELSDLKEDKPRKSLFNDAGNKKNSIKMWFSPRSKKVRYVVSKASVQTQPAIKKDASAQQDSYEFVSPSPPADVSERAKKASARSGKKQKKKTLAEINQKWNLEAEKEDGEFDSKEESKQKLVSFCSQPSVISSPQINGEIDLLASGSLTESECFGSLTEVSLPLAEQIESPDTKSRNEVVTPEKVCKNYLTSKKSLPLENNGKRGHHNRLSSPISKRCRTSILSTSGDFVKQTVPSENIPLPECSSPPSCKRKVGGTSGRKNSNMSDEFISLSPGTPPSTLSSSSYRRVMSSPSAMKLLPNMAVKRNHRGETLLHIASIKGDIPSVEYLLQNGSDPNVKDHAGWTPLHEACNHGHLKVVELLLQHKALVNTTGYQNDSPLHDAAKNGHVDIVKLLLSYGASRNAVNIFGLRPVDYTDDESMKSLLLLPEKNESSSASHCSVMNTGQRRDGPLVLIGSGLSSEQQKMLSELAVILKAKKYTEFDSTVTHVVVPGDAVQSTLKCMLGILNGCWILKFEWVKACLRRKVCEQEEKYEIPEGPRRSRLNREQLLPKLFDGCYFYLWGTFKHHPKDNLIKLVTAGGGQILSRKPKPDSDVTQTINTVAYHARPDSDQRFCTQYIIYEDLCNYHPERVRQGKVWKAPSSWFIDCVMSFELLPLDS

What was measured:
[1] = target: His-Flag-NPM (full length, recombinant, from E. coli), P06748
[2] = target: endogenous NPM of 293T cells, P06748
Sequence of endogenous NPM of 293T cells, P06748 (P06748 whole entry): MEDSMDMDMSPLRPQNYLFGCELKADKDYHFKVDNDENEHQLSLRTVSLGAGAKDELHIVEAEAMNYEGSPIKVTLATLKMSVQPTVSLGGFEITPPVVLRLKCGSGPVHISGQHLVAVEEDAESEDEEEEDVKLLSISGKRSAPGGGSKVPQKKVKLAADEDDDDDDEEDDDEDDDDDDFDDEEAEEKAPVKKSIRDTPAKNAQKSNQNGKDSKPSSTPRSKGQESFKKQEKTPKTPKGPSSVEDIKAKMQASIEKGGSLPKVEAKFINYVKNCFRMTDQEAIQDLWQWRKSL

Sequence of His-Flag-NPM (full length, recombinant, from E. coli), P06748 (P06748 whole entry): as above

Row | Protein | in vitro ubiquitination with purified recombinant proteins (anti-Flag immunoblot) [1] | LC/MS/MS identification of proteins conjugated with Flag-ubiquitin in the reaction of the ligase immunocomplex [2]
1 | B1 | two slowly floating products were detected in the gel (lane 7) | 
2 | B2 |  | Of the proteins identified, nucleophosmin/B23 (NPM) exhibited the highest possibility with 17 peptides displaying a probability based Mowse score of 126
